# B1: recombinant SSX2 (natural protein, UniProt Q16385 1-188, looked up)
# chain: MNGDDAFARRPTVGAQIPEKIQKAFDDIAKYFSKEEWEKMKASEKIFYVYMKRKYEAMTKLGFKATLPPFMCNKRAEDFQGNDLDNDPNRGNQVERPQMTFGRLQGISPKIMPKKPAEEGNDSEEVPEASGPQNDGKELCPPGKPTTSEKIHERSGPKRGEHAWTHRLRERKQLVIYEEISDPEEDDE
# notes: SSX2; GenBank CAA60111.1 is printed for SSX2 in the structure modelling; also called recombinant, purified SSX2; source: recombinant, purified
# Target: the molecule itself
# Assay: cross-linking; recombinant SSX2 diluted to indicated concentrations in 20 mM PBS (pH 7.4), 50 mM NaCl; 0.1% glutaraldehyde, 2 min at 37°C, quenched with glycine; oligomerization analysed by Western blotting
protein,measurement,value
B1,binding result,binds

# Reference: publication PMC6648343, “Remodeling and destabilization of chromosome 1 pericentromeric heterochromatin by SSX proteins” (Nucleic Acids Research, 2019)
